According to patent US20130244255A1 (published 2013):

Assays:
[1] = biological target: T1, GPNMB (CG56972) as expressed by human cell lines (human, UniProt Q14956 23-492); test: FACS on M14 cells
T1 construct: Endogenous or transfected full-length protein on cells (FACS, killing assays) or in cell lysates (immunoprecipitation, blot); also called native GPNMB protein
T1 sequence: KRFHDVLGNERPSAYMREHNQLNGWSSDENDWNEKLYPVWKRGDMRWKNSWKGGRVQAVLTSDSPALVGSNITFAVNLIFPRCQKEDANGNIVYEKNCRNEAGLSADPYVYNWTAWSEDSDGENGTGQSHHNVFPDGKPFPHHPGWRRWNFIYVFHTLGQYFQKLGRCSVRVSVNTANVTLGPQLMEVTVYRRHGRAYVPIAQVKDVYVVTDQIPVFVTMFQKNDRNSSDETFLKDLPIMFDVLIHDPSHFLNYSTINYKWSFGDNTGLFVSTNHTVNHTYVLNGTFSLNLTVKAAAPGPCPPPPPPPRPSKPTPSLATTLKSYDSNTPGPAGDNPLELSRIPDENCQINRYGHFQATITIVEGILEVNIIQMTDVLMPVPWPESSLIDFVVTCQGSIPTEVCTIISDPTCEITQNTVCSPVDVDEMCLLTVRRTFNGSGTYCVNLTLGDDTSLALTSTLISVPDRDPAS

[2] = biological target: T1, GPNMB (CG56972) as expressed by human …; test: cell-based or functional assay
[3] = biological target: T1, GPNMB (CG56972) as expressed by human …; test: FACS on WM115 cells
[4] = biological target: T1, GPNMB (CG56972) as expressed by human …; test: FACS on LOXIMVI cells
[5] = biological target: T1, GPNMB (CG56972) as expressed by human …; test: FACS on UACC-62 cells
[6] = biological target: T1, GPNMB (CG56972) as expressed by human …; test: FACS on SK-Mel 2 cells
[7] = biological target: T1, GPNMB (CG56972) as expressed by human …; test: FACS on SK-Mel 5 cells
[8] = biological target: T1, GPNMB (CG56972) as expressed by human …; test: FACS on RPMI-7951 cells
[9] = biological target: T1, GPNMB (CG56972) as expressed by human …; test: FACS on SK-Mel 24 cells
[10] = biological target: T1, GPNMB (CG56972) as expressed by human …; test: FACS on DEL cells, antibody 1 ug/mL
Experimental: (§1) Lymphoma or leukemia derived cells were washed twice with ice-cold FACS buffer and resuspended at 1 million cells per assay tube. […] Cells were then washed 2-3 times and resuspended in 1 mL of ice-cold FACS buffer. R-PE-conjugated goat anti-human antibody at 1:100 dilution was added and cells were incubated on ice for 30 min. Cells were washed 3 times with 1 mL of ice-cold FACS buffer, fixed with 0.5-1 mL of 1% formaldehyde in PBS and analyzed by Flow Cytometry.

[11] = biological target: T1, GPNMB (CG56972) as expressed by human …; test: FACS on U-251 cells, CR011 10 ug/mL
Experimental: (§2) Quantitative analysis of CG56972 expression on the surface of cell lines was determined by flow cytometry (FACS). […] Cells were fixed in 1% paraformaldehyde/PBS and examined on a Becton Dickinson FACSCalibur flow cytometer. Data analysis was performed with Becton Dickinson Cell Quest software version 3.3 and the geometric mean fluorescence intensity ratio (GMR) was determined for each cell type.

[12] = biological target: T1, GPNMB (CG56972) as expressed by human …; test: FACS on KG-1 cells, antibody 1 ug/mL
Experimental: as §1

[13] = biological target: T1, GPNMB (CG56972) as expressed by human …; test: FACS on ML-2 cells, antibody 1 ug/mL
Experimental: as §1

[14] = biological target: T1, GPNMB (CG56972) as expressed by human …; test: FACS on SF-268 cells, CR011 10 ug/mL
Experimental: as §2
(§3) Geometric Mean ratios (GMR) were determined by flow cytometric analysis.

[15] = biological target: T1, GPNMB (CG56972) as expressed by human …; test: FACS on SF-539 cells, CR011 10 ug/mL
Experimental: as §2, §3

[16] = biological target: T1, GPNMB (CG56972) as expressed by human …; test: FACS on SNB-78 cells, CR011 10 ug/mL
Experimental: as §2

[17] = biological target: T1, GPNMB (CG56972) as expressed by human …; test: FACS on HL-60 cells, antibody 1 ug/mL
[18] = biological target: T1, GPNMB (CG56972) as expressed by human …; test: FACS on PL-21 cells, antibody 1 ug/mL
Experimental: as §1

[19] = biological target: T1, GPNMB (CG56972) as expressed by human …; test: FACS on D392-MG cells, CR011 10 ug/mL
Experimental: as §2

[20] = biological target: T1, GPNMB (CG56972) as expressed by human …; test: FACS on D450-MG cells, CR011 10 ug/mL
Experimental: as §2

[21] = biological target: T1, GPNMB (CG56972) as expressed by human …; test: FACS on D534-MG cells, CR011 10 ug/mL
Experimental: as §2

[22] = biological target: T1, GPNMB (CG56972) as expressed by human …; test: FACS on SK-N-SH cells, CR011 10 ug/mL
Experimental: as §2

[23] = biological target: T1, GPNMB (CG56972) as expressed by human …; test: FACS on MOLT-4 cells, antibody 1 ug/mL
Experimental: as §1

[24] = biological target: T1, GPNMB (CG56972) as expressed by human …; test: FACS on HUT-102 cells, antibody 1 ug/mL

B1: CR011 mAb 1.15.1 (IgG2) (antibody)
heavy: QVQLQESGPGLVKPSQTLSLTCTVSGGSISSFNYYWSWIRHHPGKGLEWIGYIYYSGSTYSNPSLKSRVTISVDTSKNQFSLTLSSVTAADTAVYYCARGYNWNYFDYWGQGTLVTVSSASTKGPSVFPLAPCSRSTSESTAALGCLVKDYFPEPVTVSWNSGALTSGVHTFPAVLQSSGLYSLSSVVTVPSSNFGTQTYTCNVDHKPSNTKVDKTVERKCCVECPPCPAPPVAGPSVFLFPPKPKDTLMISRTPEVTCVVVDVSHEDPEVQFNWYVDGVEVHNAKTKPREEQFNSTFRVVSVLTVVHQDWLNGKEYKCKVSNKGLPAPIEKTISKTKGQPREPQVYTLPPSREEMTKNQVSLTCLVKGFYPSDIAVEWESNGQPENNYKTTPPMLDSDGSFFLYSKLTVDKSRWQQGNVFSCSVMHEALHNHYTQKSLSLSPGK
VL: not shown
notes: also called CR011.1.15.1; CR011 IgG2
Geo Mean Ratio (relative to isotype) [1]: 16.1 ratio | killing of UACC-62 cells with saporin-conjugated secondary antibody (colony count) [2]: > 70% | Geo Mean Ratio (relative to isotype) [3]: 1.3 ratio | Geo Mean Ratio (relative to isotype) [4]: 1 ratio | Geo Mean Ratio (relative to isotype) [5]: 5.5 ratio | Geo Mean Ratio (relative to isotype) [6]: 16.5 ratio | Geo Mean Ratio (relative to isotype) [7]: 5.7 ratio | Geo Mean Ratio (relative to isotype) [8]: 6 ratio | Geo Mean Ratio (relative to isotype) [9]: 1.9 ratio | Geo Mean Ratio [10]: 7.9 ratio | CR011 Fold Shift (GMR) [11]: 1.9 fold | Geo Mean Ratio [12]: 6.9 ratio | Geo Mean Ratio [13]: 2.1 ratio | CR011 Fold Shift (GMR) [14]: 1.5 fold | CR011 Fold Shift (GMR) [15]: 5.4 fold | CR011 Fold Shift (GMR) [16]: 8.6 fold | Geo Mean Ratio [17]: 2.3 ratio | Geo Mean Ratio [18]: 12 ratio | CR011 Fold Shift (GMR) [19]: 3.1 fold | CR011 Fold Shift (GMR) [20]: 1.6 fold | CR011 Fold Shift (GMR) [21]: 2.3 fold | CR011 Fold Shift (GMR) [22]: 2 fold | Geo Mean Ratio [23]: 6.2 ratio | Geo Mean Ratio [24]: 1 ratio
